The values that follow come from patent publication US6677433B2 (The Regents of the University of California, priority 2001, dated 2004).

Test [1] addresses T1, NADP-Malate Dehydrogenase (Zea mays, UniProt P15719).
T1 construct: NADP-malate dehydrogenase (NADP-MDH) and fructose-1,6-bisphosphatase (FBPase) were purified from leaves of corn; from tissue; host or cells: corn leaves
T1 sequence (P15719 whole entry, looked up): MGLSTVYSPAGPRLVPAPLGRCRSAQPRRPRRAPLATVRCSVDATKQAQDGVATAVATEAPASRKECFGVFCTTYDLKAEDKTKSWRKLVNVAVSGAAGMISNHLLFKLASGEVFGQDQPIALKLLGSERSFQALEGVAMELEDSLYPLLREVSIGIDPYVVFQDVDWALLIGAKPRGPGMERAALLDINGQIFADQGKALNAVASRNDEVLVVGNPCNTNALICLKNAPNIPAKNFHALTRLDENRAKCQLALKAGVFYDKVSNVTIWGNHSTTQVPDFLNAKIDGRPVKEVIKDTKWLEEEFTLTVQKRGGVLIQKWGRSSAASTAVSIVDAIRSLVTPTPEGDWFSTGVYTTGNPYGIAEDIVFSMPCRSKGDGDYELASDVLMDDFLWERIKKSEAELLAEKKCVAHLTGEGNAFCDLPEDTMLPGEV
In words: Activation of chloroplast NADP-malate dehydrogenase by thioredoxin-reduced proteins. It is filed as biochemical, corn. As to conditions: 20 μg protein; DTT→Thioredoxin→Indicated Protein→Target Enzyme. How it is done: (§1) The NADP-MDH, FBPase, NTR and Thioredoxin h assay methods were according to Florencio, F. J. et al. (1988), Arch. Biochem. Biophys. 266:496-507 with slight modifications as indicated. For enzyme activation assays, the preincubation time was 20 min unless specified otherwise.
(§2) The capability to replace a specific thioredoxin in the activation of chloroplast enzymes is one test for the ability of thiol groups of a given protein to undergo reversible redox change. […] A case in point is purothionin which, when reduced by thioredoxin h activates chloroplast FBPase (Wada, K. et al. (1981), FEBS Lett. 124:237-240, and Johnson, T. C. et al. (1987), Plant Physiol. 85:446-451). The FBPase, whose physiological activator is thioredoxin f, is unaffected by thioredoxin h. In this Example, the ability of cystine-rich proteins to activate FBPase as well as NADP-MDH was tested as set forth above. […]
(§3) The Wada et al., 1981 protocol was used for assaying NADP-malate dehydrogenase and fructose 1,6 bisphosphatase in the presence of thioredoxin and 2S protein. […] The 2S protein was monitored during purification by mBBr/SDS-polyacrylamide gel electrophoresis following its reduction by dithiothreitol and E. coli thioredoxin (Crawford et al., 1989; Kobrehel et al., 1991).

Another test addresses T2, Fructose Bisphosphatase (Spinacia oleracea, UniProt P22418).
T2 construct: fructose-1,6-bisphosphatase (FBPase) were purified from leaves of corn (Jacquot, J.-P. et al. (1981), Plant Physiol. 68:300-304) and spinach; from tissue; host or cells: spinach leaves
T2 sequence (P22418 58-415): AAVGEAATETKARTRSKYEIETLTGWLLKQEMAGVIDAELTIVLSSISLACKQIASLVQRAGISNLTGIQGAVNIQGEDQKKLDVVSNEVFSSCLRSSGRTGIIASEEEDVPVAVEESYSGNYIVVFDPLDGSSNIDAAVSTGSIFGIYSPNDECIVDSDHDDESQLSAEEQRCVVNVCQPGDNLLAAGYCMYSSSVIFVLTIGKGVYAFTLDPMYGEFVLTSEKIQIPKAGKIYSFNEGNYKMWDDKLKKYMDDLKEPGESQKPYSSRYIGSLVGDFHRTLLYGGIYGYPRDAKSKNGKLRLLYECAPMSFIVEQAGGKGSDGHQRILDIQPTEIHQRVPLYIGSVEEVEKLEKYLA
In words: Activation of chloroplast fructose bisphosphatase by thioredoxin-reduced proteins. The class given is biochemical, spinach. To be noted: standard DTT assay, 1 μg E. coli thioredoxin, 20 μg protein; corrected for thioredoxin alone. The method, then: as §1, §2, §3

Another test has as its target NADP/thioredoxin system (Escherichia coli, UniProt P0AA25). How it is done: Direct reduction of the proteins under study was determined by a modification of the method of Crawford et al. (Crawford, N. A. et al. (1989), Arch. Biochem. Biophys. 271:223-239). The reaction was carried out in 100 mM potassium phosphate buffer, pH 7.1, containing 10 mM EDTA and 16% glycerol in a final volume of 0.1 ml. As indicated, 0.7 μg (0.1 μM) NTR and 1 μg (0.8 μM) thioredoxin (both routinely from E. coli were added to 70 μl of the buffer solution containing 1 mM NADPH and 10 μg (2 to 17 μM) of target protein. When thioredoxin was reduced by dithiothreitol (DTT, 0.5 mM), NADPH and NTR were omitted. Assays with reduced glutathione were performed similarly, but at a final concentration of 1 mM. After incubation for 20 min, 100 nmoles of mBBr were added and the reaction was continued for another 15 min. To stop the reaction and derivatize excess mBBr, 10 μl of 10% SDS and 10 μl of 100 mM β-mercaptoethanol were added and the samples were then applied to the gels. In the case of reduction by glutaredoxin, the thioredoxin and NTR were replaced by 1 μg (0.8 μM) E. coli glutaredoxin, 1.4 μg (0.14 μM) glutathione reductase purified from spinach leaves (Florencio, F. J. et al. (1988), Arch. Biochem. Biophys. 266:496-507) and 1.5 mM NADPH was used.

B1: Soybean Kunitz: Kunitz soybean trypsin inhibitor (protein, UniProt P01070 25-205, looked up)
Trypsin inhibitor A: DFVLDNEGNPLENGGTYYILSDITAFGGIRAAPTGNERCPLTVVQSRNELDKGIGTIISSPYRIRFIAEGHPLSLKFDSFAVIMLCVGIPTEWSVVEDLPEGPAVKIGENKDAMDGWFRLERVSDDEFNNYKLVFCPQQAEDDKCGDIGISIDHDDGTRRLVVSKNKPLVVQFQKLDKESL
Take B1: the “ACTIVITY, NADP-MDH” value in test [1] is recorded as 2 nkat/mg. In addition, the “ACTIVITY, FBPase” value in the test with Fructose Bisphosphatase worked out at 0 nkat/mg. Besides, in the test with NADP/thioredoxin system, the “% Reduction After 20 min” value was 14% and the “% Reduction After 120 min” value is 22%.
